Source: US20210244792A1

Biological target: complement C5
Test: direct binding to C5 (FIG. 4C); method not described

EV576 protein (native, purified from salivary gland extracts of the soft tick Ornithodoros moubata) (from UniProt Q5YD59 19-168)
IC50: 20 µg/mL
